Source: EP4541814A1

Biological target: AAV9 viral particles (adeno-associated virus 9)
Test: SPR (Biacore 8K+), biotinylated ligand on SA chip (4128 RU), AAV9 2E12 vp/ml

CaptureSelect Biotin Anti-AAV9 Conjugate (ThermoFisher Scientific)
AAV9 capacity, 2E12 vp/ml (RU): 8860 RU
